Assay results published in article PMC11642901 (bioRxiv, 2024).

Biological target: hMOG isoform 1 on live GL261 cells (human, UniProt Q16653)
Assay: flow cytometry on cells

Sequence of hMOG isoform 1 on live GL261 cells (Q16653 30-247): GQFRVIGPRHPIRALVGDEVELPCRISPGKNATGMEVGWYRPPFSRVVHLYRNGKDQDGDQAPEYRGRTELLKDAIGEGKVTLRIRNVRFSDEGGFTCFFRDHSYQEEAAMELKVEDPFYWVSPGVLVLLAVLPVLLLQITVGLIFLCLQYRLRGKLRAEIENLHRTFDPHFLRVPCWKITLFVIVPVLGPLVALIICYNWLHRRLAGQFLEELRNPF

- binding result: binds
B1: anti-MOG IgG1 clone 8–18C5 (antibody, V domains shown)
VH: EVKLHESGAGLVKPGASVEISCKATGYTFSSFWIEWVKQRPGHGLEWIGEILPGRGRTNYNEKFKGKATFTAETSSNTAYMQLSSLTSEDSAVYYCATGNTMVNMPYWGQGTTVTVSS
VL: DIELTQSPSSLAVSAGEKVTMSCKSSQSLLNSGNQKNYLAWYQQKPGLPPKLLIYGASTRESGVPDRFTGSGSGTDFTLTISSVQAEDLAVYYCQNDHSYPLTFGAGTKLEIK
